By Kd is commonly meant the equilibrium constant for the complex coming apart. The low end stands for higher affinity, the high end for lower affinity.

What all share (conditions): both partners purified
The target of assay [1] is T1, HD-PTP Bro1-CC-PRR (residues 1-738) (UniProt Q9H3S7 1-738).
T1 construct: His Domain Protein Tyrosine Phosphatase (HD-PTP), Bro1 and coiled-coil domains plus the proximal region of the PRR (714-738), residues 1-738; cloned into pET28a (NdeI/XhoI); immobilised by the His6 tag on the HTE chip; also called HD-PTP_(Bro1-CC-PRR (+tag)); source: E. coli BL-21(DE3), purified (Nickel beads, MonoQ anion exchange, Superdex200 SEC); not shown: His6, N-terminal, kept
T1 sequence (looked up): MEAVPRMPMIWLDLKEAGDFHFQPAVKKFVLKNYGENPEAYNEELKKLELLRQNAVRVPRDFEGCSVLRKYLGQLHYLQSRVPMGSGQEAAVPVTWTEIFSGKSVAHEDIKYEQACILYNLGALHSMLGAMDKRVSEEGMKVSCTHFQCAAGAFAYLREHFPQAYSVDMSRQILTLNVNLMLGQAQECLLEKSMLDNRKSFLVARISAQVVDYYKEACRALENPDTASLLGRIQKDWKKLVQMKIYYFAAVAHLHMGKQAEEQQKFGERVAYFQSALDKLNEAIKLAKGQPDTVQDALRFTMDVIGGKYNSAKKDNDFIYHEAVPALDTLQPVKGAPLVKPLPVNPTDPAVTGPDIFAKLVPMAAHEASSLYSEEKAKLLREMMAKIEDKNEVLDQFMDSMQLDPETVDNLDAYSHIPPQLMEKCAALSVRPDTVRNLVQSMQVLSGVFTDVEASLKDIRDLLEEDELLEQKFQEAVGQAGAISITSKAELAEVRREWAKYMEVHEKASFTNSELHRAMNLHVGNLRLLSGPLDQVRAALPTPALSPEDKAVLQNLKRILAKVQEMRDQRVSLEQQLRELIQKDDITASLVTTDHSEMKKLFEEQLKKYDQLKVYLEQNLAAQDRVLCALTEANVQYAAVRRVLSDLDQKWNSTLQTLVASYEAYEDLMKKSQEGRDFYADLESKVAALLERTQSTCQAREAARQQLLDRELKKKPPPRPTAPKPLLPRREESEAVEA
In words: SPR; ProteOn XPR36; GST-FL-CHMP4B captured on a GLC chip derivatised with anti-GST antibody (3000-4000 RU); HD-PTP proteins as analytes; equilibrium binding model; 25 °C; 10 mM HEPES pH 7.4, 150 mM NaCl, 0.05% Tween-20. In general terms: In SPR one partner is held on a chip, and binding of the other changes the refractive index at the surface.

Assay [2] addresses T2, HD-PTP Bro1 domain (residues 1-361) (UniProt Q9H3S7 1-361).
T2 construct: His Domain Protein Tyrosine Phosphatase (HD-PTP), Bro1 domain, residues 1-361; cloned into pNIC-28a-Bsa4; No tag cleavage is described for the His6-tagged proteins; The vector pNIC28-Bsa4 probably adds an N-terminal His6 tag with a TEV site (surmise); also called His Domain Protein Tyrosine Phosphatase Bro1; source: E. coli BL-21(DE3), purified (Nickel beads, MonoQ anion exchange, Superdex200 SEC)
T2 sequence (looked up): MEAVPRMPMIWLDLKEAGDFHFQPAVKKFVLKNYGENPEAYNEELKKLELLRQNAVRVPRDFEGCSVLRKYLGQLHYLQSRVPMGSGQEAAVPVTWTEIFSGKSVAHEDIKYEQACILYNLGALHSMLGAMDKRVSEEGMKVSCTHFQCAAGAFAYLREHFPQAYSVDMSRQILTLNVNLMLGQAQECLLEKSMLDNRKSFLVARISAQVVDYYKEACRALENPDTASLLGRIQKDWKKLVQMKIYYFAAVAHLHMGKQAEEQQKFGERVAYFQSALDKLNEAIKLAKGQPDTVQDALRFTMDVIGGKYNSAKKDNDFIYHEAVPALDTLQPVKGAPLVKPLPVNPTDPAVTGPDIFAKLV
The description is as above.

The target in assay [3] is T1, HD-PTP Bro1-CC-PRR (residues 1-738). Kind of assay: SPR; ProteOn XPR36; His6-tagged HD-PTP Bro1-CC-PRR immobilised on an HTE chip (5000-8000 RU); synthetic peptides as analytes; equilibrium binding model; 25 °C; 10 mM HEPES pH 7.4, 150 mM NaCl, 0.05% Tween-20.

B1: GST-tagged full length CHMP4B (natural protein, UniProt Q9H444 1-224, looked up)
chain: MSVFGKLFGAGGGKAGKGGPTPQEAIQRLRDTEEMLSKKQEFLEKKIEQELTAAKKHGTKNKRAALQALKRKKRYEKQLAQIDGTLSTIEFQREALENANTNTEVLKNMGYAAKAMKAAHDNMDIDKVDELMQDIADQQELAEEISTAISKPVGFGEEFDEDELMAELEELEQEELDKNLLEISGPETVPLPNVPSIALPSKPAKKKEEEDDDMKELENWAGSM
notes: CHMP4B (ESCRT-III subunit), full length; Captured on the chip by an anti-GST antibody; also called FL-CHMP4B; source: E. coli C41, purified (GSTrap FF, glutathione elution)
For B1, the Kd in assay [1] is 1100 ± 100 nM; in assay [2] it was 4.88 ± 0.3 µM.

B2: UBAP1 peptide (residues 261-280) (peptide)
peptide: SNIKSLSFPKLDSDDSNQKT
notes: UBAP1 (ESCRT-I subunit), central region, residues 261-280; also called central region of UBAP1; source: synthetic peptide (Generon Ltd, UK)
Regarding B2, the equilibrium dissociation constant (Kd) in assay [3] worked out at 57.5 ± 3.1 µM.

B3: CHMP4B peptide (residues 205-224) (peptide)
peptide: KKKEEEDDDMKELENWAGSM
notes: CHMP4B, C-terminal residues 205-224; also called peptide from the C-terminus of CHMP4B; source: synthetic peptide (Generon Ltd, UK)
B3: the Kd in assay [3] stood at 30.9 ± 0.2 µM.

The record behind these values is PMC5567221, “The open architecture of HD-PTP phosphatase provides new insights into the mechanism of regulation of ESCRT function” (Scientific Reports, 2017).
